Experiment [1] deals with 2C T cell receptor on CD8+ T cells of 2C TCR transgenic mice (mouse). Nature of the experiment: estimated from dissociation data, activated 2C T cells.
Experiment [2] has the same target. As to the kind of experiment: flow cytometry off-rate assay on activated 2C T cells, derived from off-rate.
Experiment [3] has the same target. Nature of the experiment: flow cytometry off-rate assay on naive 2C T cells, derived from off-rate.
For experiment [4] the target is unchanged. Nature of the experiment: flow cytometry off-rate assay on naive 2C T cells, APC-labeled MHC-Ig, 1B2 added to prevent re-binding, exponential fit.
Experiment [5] shares this target. Nature of the experiment: estimated from dissociation data, naive 2C T cells; one contact is assumed for the dimer on naive cells.
Experiment [6] shares this target. As to the kind of experiment: flow cytometry off-rate assay on activated 2C T cells, APC-labeled MHC-Ig, 1B2 added to prevent re-binding, exponential fit.
Experiment [7] has the same target. As to the kind of experiment: off-rate assay, flow cytometry, activated against naive T cells.
Experiment [8] addresses pmel T cell receptor on CD8+ T cells of pMEL TCR transgenic mice (mouse) (UniProt Q60696). As to the kind of experiment: flow cytometry, Alexa 647 labeled particles on control non-cognate CD44lo pmel T cells.
Sequence of UniProt Q60696 (Q60696 whole entry): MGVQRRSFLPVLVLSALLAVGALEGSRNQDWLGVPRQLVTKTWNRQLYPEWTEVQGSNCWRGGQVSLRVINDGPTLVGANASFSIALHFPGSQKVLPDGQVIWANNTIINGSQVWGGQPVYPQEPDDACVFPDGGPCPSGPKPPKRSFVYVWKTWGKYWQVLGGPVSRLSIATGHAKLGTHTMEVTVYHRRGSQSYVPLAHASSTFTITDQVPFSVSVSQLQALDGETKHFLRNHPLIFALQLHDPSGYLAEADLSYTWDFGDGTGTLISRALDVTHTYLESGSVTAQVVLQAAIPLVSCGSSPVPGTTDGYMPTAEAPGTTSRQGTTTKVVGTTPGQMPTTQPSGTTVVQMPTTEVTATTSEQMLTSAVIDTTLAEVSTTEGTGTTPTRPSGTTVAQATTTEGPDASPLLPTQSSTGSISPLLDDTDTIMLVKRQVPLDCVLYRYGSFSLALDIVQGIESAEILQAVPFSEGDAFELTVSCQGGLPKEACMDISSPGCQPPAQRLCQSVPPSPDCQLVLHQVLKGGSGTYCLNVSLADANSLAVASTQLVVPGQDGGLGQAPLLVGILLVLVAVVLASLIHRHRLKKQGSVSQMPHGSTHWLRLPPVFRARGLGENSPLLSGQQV
In experiment [9] the target is 2C T cell receptor on CD8+ T cells of 2C TCR transgenic mice (mouse). Nature of the experiment: flow cytometry, Alexa 647 labeled particles bound to naive CD44lo 2C T cells.
The target is the same in experiment [10]. As to the kind of experiment: flow cytometry off-rate assay on activated 2C T cells, APC-labeled nanoparticles bearing K^b-SIY alone, 1B2 added to prevent re-binding, exponential fit.
The target is the same in experiment [11]. As to the kind of experiment: equilibrium particle binding assay, flow cytometry, activated against naive T cells.
For experiment [12] the target is unchanged. As to the kind of experiment: estimated from dissociation data, naive 2C T cells.
Experiment [13] has the same target. Nature of the experiment: flow cytometry off-rate assay on naive 2C T cells, APC-labeled nanoparticles bearing K^b-SIY alone, 1B2 added to prevent re-binding, exponential fit.
The target is the same in experiment [14]. Nature of the experiment: estimated from dissociation data, naive cells (6.8 contacts).
The target is the same in experiment [15]. Nature of the experiment: estimated from dissociation data, activated cells (12.6 contacts).
For experiment [16] the target is unchanged. Nature of the experiment: flow cytometry, Alexa 647 labeled particles bound to activated 2C T cells (seven days after peptide activation).

Consider “K^b-SIY MHC-Ig dimer (soluble K^b-Ig loaded with SIY peptide) (from UniProt P01901 22-305) (peptide-MHC)”, for which the values for the TCR-MHC Contacts in experiment [1] and in experiment [5] were 1.7 contacts and 1 contacts, respectively. In addition, the Half-Life in experiment [2] stood at 1.87 min; in experiment [3], 1.3 min. The off-rate (koff) in experiment [4] turned out to be 0.0089 s⁻¹; in experiment [6], 0.0052 s⁻¹.

As for “Nanoparticles bearing K^b-SIY MHC-Ig alone (iron-dextran nanoparticle, no anti-CD28) (from UniProt P01901 22-305) (peptide-MHC)”, the fold slower disassociation from activated than from naive cells in [7] was 2 fold. The MFI in experiment [8] came to 21 MFI; in experiment [9], 179 MFI; in [16] it was 89 MFI. Also, the TCR-MHC Contacts was 12.6 contacts in experiment [1] and 6.8 contacts in [12]. For the same substance, the koff in experiment [10] was 0.0009 s⁻¹; in [13], 0.002 s⁻¹. The values for the Half-Life in experiment [2] and in [3] were 16.4 min and 8.85 min, respectively. Moreover, the fold fewer nanoparticles bound at equilibrium by activated than by naive cells in experiment [11] was found to be 2 fold. Further, the percent of MHC-Ig dimers on the particle surface in TCR-MHC contacts is 11% in experiment [14] and 22% in experiment [15].

The values above are taken from patent publication US10435668.
